Reference: article PMC4244684 (The Journal of biological chemistry, 2007)
Read-outs that look alike come from different tables or passages of the source.

T1: Su(dx) WW1 domain (Drosophila, UniProt Q9Y0H4 352-398)
T1 chain (looked up): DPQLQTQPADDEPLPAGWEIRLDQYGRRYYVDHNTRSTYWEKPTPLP


Assays:
Assay in all cases: ITC
Su(dx) WW1 domain = biological target: T1, Su(dx) WW1 domain
Su(dx) WW2 domain [1] = biological target: T2, Su(dx) WW2 domain (Drosophila, UniProt Q9Y0H4 392-431)
Su(dx) WW3 domain [2] = biological target: T3, Su(dx) WW3 domain (Drosophila, UniProt Q9Y0H4 471-514)
Su(dx) WW4 domain = Su(dx) WW4 domain (Drosophila, UniProt Q9Y0H4 515-557)
[3] = biological target: Su(dx) WW4 (F549W) mutant domain (Drosophila, UniProt Q9Y0H4 515-557, F549W)
[4] = biological target: Su(dx) WW3-4 (W505F) mutant tandem pair (Drosophila, UniProt Q9Y0H4 474-554, W505F)
[5] = biological target: Su(dx) WW3-4 tandem domain pair (Drosophila, UniProt Q9Y0H4 474-554)
[6] = biological target: Su(dx) WW3-4 preloaded (saturated) with WBP1 peptide (Drosophila | , UniProt Q9Y0H4 474-554)
Su(dx) WW2 domain [7] = biological target: T2, Su(dx) WW2 domain; remark: listed apart in the source
Su(dx) WW3 domain [8] = biological target: T3, Su(dx) WW3 domain; remark: listed apart in the source

T2 sequence (Q9Y0H4 392-431): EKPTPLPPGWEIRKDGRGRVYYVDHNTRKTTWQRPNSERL
T3 sequence (Q9Y0H4 471-514): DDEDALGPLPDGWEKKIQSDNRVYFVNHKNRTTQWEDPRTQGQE
Su(dx) WW4 (F549W) mutant domain, sequence (Q9Y0H4 515-557 F549W): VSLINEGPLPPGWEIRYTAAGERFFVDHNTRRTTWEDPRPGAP
Su(dx) WW4 domain, sequence (Q9Y0H4 515-557): as the sequence (Q9Y0H4 515-557 F549W) above, with W35F counted along it
Su(dx) WW3-4 tandem domain pair, sequence (Q9Y0H4 474-554): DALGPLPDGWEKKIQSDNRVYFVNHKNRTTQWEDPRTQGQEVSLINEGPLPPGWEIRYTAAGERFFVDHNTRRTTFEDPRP
Su(dx) WW3-4 (W505F) mutant tandem pair, sequence (Q9Y0H4 474-554 W505F): as the sequence (Q9Y0H4 474-554) above, with W32F counted along it
Su(dx) WW3-4 preloaded (saturated) with WBP1 peptide, sequence (Q9Y0H4 474-554): as the sequence (Q9Y0H4 474-554) above

Binder | Kd (Su(dx) WW1 domain) | Kd (Su(dx) WW2 domain [1]) | Kd (Su(dx) WW3 domain [2]) | Kd (Su(dx) WW4 domain) | Kd [3] | Kd [4] | Kd [5] | Kd [6] | Kd (Su(dx) WW2 domain [7]) | Kd (Su(dx) WW3 domain [8])
AKQPPSYEDCIK [Notch PY motif peptide N1] | 214 µM | 199 µM | 208 µM | 45 µM | 15 µM | 97 µM | 95 µM | 42 µM | – | –
AKQPPSYEDC [Notch PY motif peptide N2] | – | – | – | 45 µM | – | – | – | – | – | –
GPPPPPYPG [WBP1 peptide] | 125 µM | 116 µM | 114 µM | – | 31 µM | – | 185 µM | – | 117 µM | 115 µM
